We go through four substances from FireProtDB (doi:10.1021/bi960052u).

The conditions of this data set: Equus caballus, pH 7, 10 °C, GdnHCl, Fluorescence, Sodium phosphate 0.1 M.

Chain of Cytochrome c L95V, P00004 (P00004 whole entry L95V): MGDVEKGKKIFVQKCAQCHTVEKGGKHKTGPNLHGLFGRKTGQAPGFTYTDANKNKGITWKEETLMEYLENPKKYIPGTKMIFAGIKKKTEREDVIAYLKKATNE
Chain of Cytochrome c wild type, P00004 (P00004 whole entry): as the sequence (P00004 whole entry L95V) above, with V95L counted along it
Chain of Cytochrome c L95I, P00004 (P00004 whole entry L95I): as the sequence (P00004 whole entry L95V) above, with V95I counted along it
Chain of Cytochrome c L95A, P00004 (P00004 whole entry L95A): as the sequence (P00004 whole entry L95V) above, with V95A counted along it

For Cytochrome c L95I, P00004, for the setting “structure 1AKK”, the “ddG of mutation (higher = less stable)” value is -0.2 kcal/mol, the denaturant m value stood at 4 kcal/mol/M, the “denaturant midpoint (higher = more stable)” value (from here on “denaturant midpoint”) came out at 2.47 M and the unfolding free energy was found to be 9.9 kcal/mol.
On to Cytochrome c L95V, P00004, for which, under “structure 1AKK”, the “ddG of mutation (higher = less stable)” value is 0.8 kcal/mol, the denaturant m value worked out at 3.6 kcal/mol/M, the “denaturant midpoint” value turned out to be 2.47 M and the unfolding free energy is 8.9 kcal/mol.
For the substance Cytochrome c L95A, P00004, where the note is “structure 1AKK”, the “ddG of mutation (higher = less stable)” value came out at 3.5 kcal/mol, the denaturant m value is 3.7 kcal/mol/M, the “denaturant midpoint” value came out at 1.67 M and the unfolding free energy turned out to be 6.2 kcal/mol.
With Cytochrome c wild type, P00004, the denaturant m value came to 3.5 kcal/mol/M, the “denaturant midpoint” value came out at 2.77 M and the unfolding free energy turned out to be 9.7 kcal/mol.
